Experimental data: US20180305423A1 (OKLAHOMA MEDICAL RESEARCH FOUNDATION, published 2018)
Blank lines part the entries; values can stand above or below the binder they belong to.

How the values were obtained:
[1] = target: T1, VEGFR2 (endogenous, HUVEC^αvβ3 cells) (human, UniProt P35968 20-1356); assay: co-IP with anti-VEGFR2 from HUVECαvβ3 cells, blot for Epn1, with quantification [panel B]
T1 construct: whole, on cells

[2] = target: T2, IP3R1 (IP3 receptor 1, ITPR1) (mouse, UniProt P11881 1-2749, limits assumed); assay: IP with epsin 1 antibody from oxLDL-treated MAEC, gel for mass spectrometry [panel A]
T2 construct: also called IP3 Receptors
T2 sequence (P11881 whole entry): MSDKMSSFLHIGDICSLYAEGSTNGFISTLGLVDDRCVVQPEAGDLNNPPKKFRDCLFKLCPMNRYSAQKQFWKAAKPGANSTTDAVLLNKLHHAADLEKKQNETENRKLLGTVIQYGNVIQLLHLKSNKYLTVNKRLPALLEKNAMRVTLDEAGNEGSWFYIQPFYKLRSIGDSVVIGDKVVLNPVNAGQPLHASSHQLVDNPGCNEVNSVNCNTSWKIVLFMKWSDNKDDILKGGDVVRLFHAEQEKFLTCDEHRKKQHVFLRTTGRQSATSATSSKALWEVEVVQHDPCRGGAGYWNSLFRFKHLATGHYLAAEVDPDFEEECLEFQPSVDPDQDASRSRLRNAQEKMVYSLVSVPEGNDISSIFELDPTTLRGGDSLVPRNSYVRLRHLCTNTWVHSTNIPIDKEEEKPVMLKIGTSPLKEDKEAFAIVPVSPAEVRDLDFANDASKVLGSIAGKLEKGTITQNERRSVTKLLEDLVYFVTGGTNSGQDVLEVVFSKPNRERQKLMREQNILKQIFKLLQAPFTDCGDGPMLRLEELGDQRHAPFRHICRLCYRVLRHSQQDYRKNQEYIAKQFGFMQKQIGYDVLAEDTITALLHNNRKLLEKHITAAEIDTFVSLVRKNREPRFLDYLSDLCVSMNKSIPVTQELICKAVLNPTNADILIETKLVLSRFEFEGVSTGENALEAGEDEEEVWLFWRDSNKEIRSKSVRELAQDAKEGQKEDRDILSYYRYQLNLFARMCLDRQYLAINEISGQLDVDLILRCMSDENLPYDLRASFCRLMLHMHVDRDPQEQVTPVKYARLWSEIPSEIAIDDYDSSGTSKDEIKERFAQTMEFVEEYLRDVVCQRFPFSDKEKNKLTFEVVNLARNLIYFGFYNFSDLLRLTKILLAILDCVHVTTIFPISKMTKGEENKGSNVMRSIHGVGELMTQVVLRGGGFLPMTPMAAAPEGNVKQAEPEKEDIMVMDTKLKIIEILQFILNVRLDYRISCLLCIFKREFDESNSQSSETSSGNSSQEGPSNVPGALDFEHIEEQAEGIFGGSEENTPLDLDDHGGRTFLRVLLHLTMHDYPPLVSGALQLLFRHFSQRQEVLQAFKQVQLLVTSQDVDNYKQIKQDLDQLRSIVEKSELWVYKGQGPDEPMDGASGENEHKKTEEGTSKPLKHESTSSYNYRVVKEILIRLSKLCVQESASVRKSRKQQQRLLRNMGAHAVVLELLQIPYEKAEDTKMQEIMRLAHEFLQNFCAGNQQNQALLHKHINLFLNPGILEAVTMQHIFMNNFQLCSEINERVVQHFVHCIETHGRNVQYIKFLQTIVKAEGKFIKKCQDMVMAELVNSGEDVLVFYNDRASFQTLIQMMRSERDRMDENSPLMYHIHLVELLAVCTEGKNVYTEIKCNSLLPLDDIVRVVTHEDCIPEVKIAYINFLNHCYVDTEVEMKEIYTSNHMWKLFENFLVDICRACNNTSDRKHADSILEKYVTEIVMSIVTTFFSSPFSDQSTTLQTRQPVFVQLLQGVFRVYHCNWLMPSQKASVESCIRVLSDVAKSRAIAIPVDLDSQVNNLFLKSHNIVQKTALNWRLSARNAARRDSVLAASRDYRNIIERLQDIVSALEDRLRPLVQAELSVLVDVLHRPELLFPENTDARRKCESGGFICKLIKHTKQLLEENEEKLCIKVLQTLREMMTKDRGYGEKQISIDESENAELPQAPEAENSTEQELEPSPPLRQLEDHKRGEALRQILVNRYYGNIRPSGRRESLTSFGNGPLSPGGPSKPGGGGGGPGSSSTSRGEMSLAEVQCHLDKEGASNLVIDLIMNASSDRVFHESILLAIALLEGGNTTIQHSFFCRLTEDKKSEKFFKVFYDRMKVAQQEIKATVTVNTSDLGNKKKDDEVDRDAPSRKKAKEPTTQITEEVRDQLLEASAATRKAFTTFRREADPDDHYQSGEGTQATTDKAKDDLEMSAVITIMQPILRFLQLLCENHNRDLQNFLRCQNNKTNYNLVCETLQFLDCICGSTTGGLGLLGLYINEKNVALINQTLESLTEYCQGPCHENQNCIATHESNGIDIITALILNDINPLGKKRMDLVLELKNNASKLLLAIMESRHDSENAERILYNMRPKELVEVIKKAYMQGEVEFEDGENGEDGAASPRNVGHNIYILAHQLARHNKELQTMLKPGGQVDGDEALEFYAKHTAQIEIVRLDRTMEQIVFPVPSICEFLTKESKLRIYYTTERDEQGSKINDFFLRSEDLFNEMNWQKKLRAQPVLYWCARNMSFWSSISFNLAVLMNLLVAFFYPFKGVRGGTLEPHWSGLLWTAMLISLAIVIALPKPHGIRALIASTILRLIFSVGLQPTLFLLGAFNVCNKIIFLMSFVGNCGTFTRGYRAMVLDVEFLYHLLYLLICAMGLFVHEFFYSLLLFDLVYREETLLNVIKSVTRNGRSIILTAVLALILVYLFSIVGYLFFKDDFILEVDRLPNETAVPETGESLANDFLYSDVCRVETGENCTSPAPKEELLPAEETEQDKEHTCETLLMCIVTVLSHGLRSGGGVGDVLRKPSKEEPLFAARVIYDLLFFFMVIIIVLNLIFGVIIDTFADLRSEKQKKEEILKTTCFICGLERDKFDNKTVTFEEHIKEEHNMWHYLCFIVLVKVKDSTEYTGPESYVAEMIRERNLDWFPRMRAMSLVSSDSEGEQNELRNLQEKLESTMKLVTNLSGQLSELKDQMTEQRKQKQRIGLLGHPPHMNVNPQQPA

[3] = target: T3, IRS1 (insulin receptor substrate) (UniProt P35569 1-1233); assay: co-IP with anti-epsin 1 from 3T3-L1 pre-adipocytes with or without insulin, blot for IRS1
T3 sequence (looked up): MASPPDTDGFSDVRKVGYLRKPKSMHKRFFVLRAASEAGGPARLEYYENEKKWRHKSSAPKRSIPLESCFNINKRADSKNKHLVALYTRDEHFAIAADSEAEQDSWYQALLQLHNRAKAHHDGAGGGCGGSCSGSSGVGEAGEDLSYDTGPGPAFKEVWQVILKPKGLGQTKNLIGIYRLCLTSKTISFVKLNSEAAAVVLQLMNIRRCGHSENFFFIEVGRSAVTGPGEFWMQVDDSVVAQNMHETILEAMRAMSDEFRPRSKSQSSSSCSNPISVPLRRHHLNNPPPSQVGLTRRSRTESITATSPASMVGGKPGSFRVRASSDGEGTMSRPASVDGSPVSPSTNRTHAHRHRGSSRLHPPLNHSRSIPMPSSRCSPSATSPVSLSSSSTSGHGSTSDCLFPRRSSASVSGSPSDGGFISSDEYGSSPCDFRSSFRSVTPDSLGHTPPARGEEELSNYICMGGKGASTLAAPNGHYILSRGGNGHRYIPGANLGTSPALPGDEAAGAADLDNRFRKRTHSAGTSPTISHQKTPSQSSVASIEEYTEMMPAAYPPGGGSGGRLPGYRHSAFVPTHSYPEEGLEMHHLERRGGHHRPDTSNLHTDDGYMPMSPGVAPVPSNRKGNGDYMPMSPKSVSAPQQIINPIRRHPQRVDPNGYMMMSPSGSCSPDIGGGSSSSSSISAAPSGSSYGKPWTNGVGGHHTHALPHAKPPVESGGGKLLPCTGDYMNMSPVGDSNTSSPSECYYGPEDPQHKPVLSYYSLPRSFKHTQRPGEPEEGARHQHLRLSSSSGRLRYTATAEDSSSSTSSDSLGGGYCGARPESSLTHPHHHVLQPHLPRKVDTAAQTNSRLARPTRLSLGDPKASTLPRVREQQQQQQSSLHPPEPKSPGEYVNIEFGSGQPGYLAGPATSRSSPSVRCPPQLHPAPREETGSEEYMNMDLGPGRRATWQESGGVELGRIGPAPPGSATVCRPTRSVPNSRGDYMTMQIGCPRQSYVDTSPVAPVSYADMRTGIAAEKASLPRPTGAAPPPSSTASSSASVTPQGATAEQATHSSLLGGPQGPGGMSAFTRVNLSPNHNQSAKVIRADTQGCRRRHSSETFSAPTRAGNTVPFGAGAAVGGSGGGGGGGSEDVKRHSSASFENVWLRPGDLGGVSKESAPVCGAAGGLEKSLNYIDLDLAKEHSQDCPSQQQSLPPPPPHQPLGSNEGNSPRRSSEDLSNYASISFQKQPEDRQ

T1 sequence (P35968 20-1356): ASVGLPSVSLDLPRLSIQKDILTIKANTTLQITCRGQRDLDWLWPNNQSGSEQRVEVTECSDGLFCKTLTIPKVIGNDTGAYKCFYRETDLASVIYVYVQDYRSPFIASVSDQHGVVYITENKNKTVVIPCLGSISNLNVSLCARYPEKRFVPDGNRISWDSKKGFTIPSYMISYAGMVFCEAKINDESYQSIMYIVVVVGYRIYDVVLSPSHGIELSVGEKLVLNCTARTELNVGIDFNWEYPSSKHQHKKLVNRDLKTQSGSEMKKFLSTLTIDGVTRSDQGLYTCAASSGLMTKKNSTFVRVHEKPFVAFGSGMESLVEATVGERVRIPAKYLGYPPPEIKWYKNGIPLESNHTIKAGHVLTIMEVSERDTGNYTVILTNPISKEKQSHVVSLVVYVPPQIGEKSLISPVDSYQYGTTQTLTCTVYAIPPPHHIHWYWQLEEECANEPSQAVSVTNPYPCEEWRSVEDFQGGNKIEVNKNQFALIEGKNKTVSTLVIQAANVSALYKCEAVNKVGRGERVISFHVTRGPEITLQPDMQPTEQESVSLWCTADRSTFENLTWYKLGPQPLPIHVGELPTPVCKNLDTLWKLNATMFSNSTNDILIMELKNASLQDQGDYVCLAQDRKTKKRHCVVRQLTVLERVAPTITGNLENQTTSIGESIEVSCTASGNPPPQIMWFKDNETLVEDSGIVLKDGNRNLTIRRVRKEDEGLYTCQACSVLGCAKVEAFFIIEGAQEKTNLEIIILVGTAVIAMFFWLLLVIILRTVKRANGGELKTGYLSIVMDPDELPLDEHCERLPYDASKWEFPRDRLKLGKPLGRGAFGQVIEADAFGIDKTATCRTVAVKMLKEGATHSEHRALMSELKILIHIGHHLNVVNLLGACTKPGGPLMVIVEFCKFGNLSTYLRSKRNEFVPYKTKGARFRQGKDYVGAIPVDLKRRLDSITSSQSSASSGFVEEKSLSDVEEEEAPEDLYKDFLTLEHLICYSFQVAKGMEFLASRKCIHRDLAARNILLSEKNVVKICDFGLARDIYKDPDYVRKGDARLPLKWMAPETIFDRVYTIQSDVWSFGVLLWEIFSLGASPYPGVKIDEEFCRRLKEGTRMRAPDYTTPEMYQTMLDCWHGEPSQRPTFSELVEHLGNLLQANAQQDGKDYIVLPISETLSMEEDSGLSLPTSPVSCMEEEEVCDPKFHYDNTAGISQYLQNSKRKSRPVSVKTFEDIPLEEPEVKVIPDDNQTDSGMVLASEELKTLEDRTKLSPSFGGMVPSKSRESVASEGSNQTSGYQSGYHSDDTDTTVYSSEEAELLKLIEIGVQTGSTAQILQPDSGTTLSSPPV

binding result [1]: binds
B1: Epsin 1 (endogenous, HUVEC^αvβ3 cells) (other, human, UniProt Q9Y6I3 1-576, looked up)
chain: MSTSSLRRQMKNIVHNYSEAEIKVREATSNDPWGPSSSLMSEIADLTYNVVAFSEIMSMIWKRLNDHGKNWRHVYKAMTLMEYLIKTGSERVSQQCKENMYAVQTLKDFQYVDRDGKDQGVNVREKAKQLVALLRDEDRLREERAHALKTKEKLAQTATASSAAVGSGPPPEAEQAWPQSSGEEELQLQLALAMSKEEADQPPSCGPEDDAQLQLALSLSREEHDKEERIRRGDDLRLQMAIEESKRETGGKEESSLMDLADVFTAPAPAPTTDPWGGPAPMAAAVPTAAPTSDPWGGPPVPPAADPWGGPAPTPASGDPWRPAAPAGPSVDPWGGTPAPAAGEGPTPDPWGSSDGGVPVSGPSASDPWTPAPAFSDPWGGSPAKPSTNGTTAAGGFDTEPDEFSDFDRLRTALPTSGSSAGELELLAGEVPARSPGAFDMSGVRGSLAEAVGSPPPAATPTPTPPTRKTPESFLGPNAALVDLDSLVSRPGPTPPGAKASNPFLPGGGPATGPSVTNPFQPAPPATLTLNQLRLSPVPPVPGAPPTYISPLGGGPGLPPMMPPGPPAPNTNPFLL
notes: also called endogenous epsin 1

binding result [2]: binds
binding result [3]: binds
B2: Epsin 1 (endogenous, MAEC and 3T3-L1 cells) (other, mouse, UniProt Q80VP1 1-575, looked up)
chain: MSTSSLRRQMKNIVHNYSEAEIKVREATSNDPWGPSSSLMSEIADLTYNVVAFSEIMSMIWKRLNDHGKNWRHVYKAMTLMEYLIKTGSERVSQQCKENMYAVQTLKDFQYVDRDGKDQGVNVREKAKQLVALLRDEDRLREERAHALKTKEKLAQTATASSAAVGSGPPPEAEQAWPQSSGEEELQLQLALAMSKEEADQPPSCGPEDDVQLQLALSLSREEHDKEERIRRGDDLRLQMAIEESKRETGGKEESSLMDLADVFTTPAPPQASDPWGGPASVPTAVPVAAAASDPWGGPAVPPAADPWGGAAPTPASGDPWRPAAPTGPSVDPWGGTPAPAAGEGPTPDPWGSSDGGAPVSGPPSSDPWAPAPAFSDPWGGSPAKPSSNGTAVGGFDTEPDEFSDFDRLRTALPTSGSSTGELELLAGEVPARSPGAFDMSGVGGSLAESVGSPPPAATPTPTPPTRKTPESFLGPNAALVDLDSLVSRPGPTPPGSKASNPFLPSGAPPTGPSVTNPFQPAPPATLTLNQLRLSPVPPVPGAPPTYISPLGGGPGLPPMMPPGPPAPNTNPFLL
notes: also called epsins
